Read-outs that look alike come from different tables or passages of the source. Positions of bridges follow the written chain, without caps; N, C: chain ends. Non-standard residues stand in square brackets, D forms with d. No end group written: not given here. Aib = CC(C)(N)C(=O)O
Tests used:
[1] = cited from earlier work
[2] = target: human glucagon receptor (human, UniProt P47871 26-477); test: cell-based or functional assay
Chain of human glucagon receptor (P47871 26-477): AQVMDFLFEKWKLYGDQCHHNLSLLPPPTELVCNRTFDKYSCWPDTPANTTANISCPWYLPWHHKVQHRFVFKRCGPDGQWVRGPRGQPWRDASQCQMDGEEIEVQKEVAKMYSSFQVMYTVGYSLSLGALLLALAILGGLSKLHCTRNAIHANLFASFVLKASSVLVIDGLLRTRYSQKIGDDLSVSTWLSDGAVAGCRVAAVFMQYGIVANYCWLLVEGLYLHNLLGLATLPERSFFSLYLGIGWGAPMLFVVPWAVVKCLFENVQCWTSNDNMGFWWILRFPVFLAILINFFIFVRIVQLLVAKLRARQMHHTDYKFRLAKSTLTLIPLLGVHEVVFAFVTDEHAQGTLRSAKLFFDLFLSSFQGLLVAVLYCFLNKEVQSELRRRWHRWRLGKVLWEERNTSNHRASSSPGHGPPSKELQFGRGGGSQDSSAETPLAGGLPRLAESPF

Molecule	in vitro activity (%, relative to SEQ ID NO: 1); cAMP assay, from EC50 [2] [%]	further results
CCCCCCCCCCC[C@@H](C[C@@H]1OC(=O)[C@H]1CCCCCC)OC(=O)[C@H](CC(C)C)NC=O [Orlistat]	–	weight loss ([1]; when taken for one year): about 4 kg
Cc1c(C(=O)NN2CCCCC2)nn(-c2ccc(Cl)cc2Cl)c1-c1ccc(Cl)cc1 [Rimonabant]	–	side-effects ([1]; reported): side-effect of central nervous system disorder
CC(C)CC(N(C)C)C1(c2ccc(Cl)cc2)CCC1 (stereo not drawn) [Sibutramine]	–	side-effects ([1]; reported): cardiovascular side-effects
Contrave	–	side-effects ([1]; in vivo): cardiovascular side-effects
Y[Aib]QGTFTSDYSKYLDSCDAQDFVVWLINT [glucagon derivative of SEQ ID NO: 9]	< 0.1	–
Y[Aib]QGTFTSDYSKYLDSCDADDFVVWLINT [glucagon derivative of SEQ ID NO: 10]	< 0.1	–
Y[Aib]QGTFTSDYSKYLDEKCAKEFVQWLMNT [glucagon derivative of SEQ ID NO: 11]	4.6	–
Y[Aib]QGTFTSDYSKYLDEKRAKEFVQWLMNTC (lactam 16-20) [glucagon derivative of SEQ ID NO: 12]	56.3	–
Y[Aib]QGTFTSDYSKYLDCKRAKEFVQWLMNT [glucagon derivative of SEQ ID NO: 14]	18.1	–
Y[Aib]QGTFTSDYSKYLCEKRAQDFVVWLMNT [glucagon derivative of SEQ ID NO: 15]	1.1	–
Y[Aib]QGTFTSDYSKYLDCRRAQVFVQWLMRT [glucagon derivative of SEQ ID NO: 16]	4.2	–
Y[Aib]QGTFTSDYSKYLDCVRAQDFVQWLMRT [glucagon derivative of SEQ ID NO: 17]	23.2	–
Y[Aib]QGTFTSDYSKYLDSRRACDFRLWLMNT [glucagon derivative of SEQ ID NO: 18]	< 0.1	–
Y[Aib]QGTFTSDYSKYLCEKRAKEFVQWLMNT (lactam 16-20) [glucagon derivative of SEQ ID NO: 19]	12.1	–
Y[Aib]QGTFTSDYSKYLDECRAKEFVQWLMNT (lactam 16-20) [glucagon derivative of SEQ ID NO: 20]	300	–
Y[Aib]QGTFTSDYSKYLDEKCAKEFVQWLMNT (lactam 16-20) [glucagon derivative of SEQ ID NO: 21]	57.8	–
Y[Aib]QGTFTSDYSKYLDEKRCKEFVQWLMNT (lactam 16-20) [glucagon derivative of SEQ ID NO: 22]	148	–
Y[Aib]QGTFTSDYSKYCDEKRAKEFVQWLMNT (lactam 16-20) [glucagon derivative of SEQ ID NO: 23]	76.8	–
Y[Aib]QGTFTSDYSKCLDEKRAKEFVQWLMNT (lactam 16-20) [glucagon derivative of SEQ ID NO: 24]	58	–
Y[Aib]QGTFTSDYSKYLDEKRAKCFVQWLMNT (lactam 16-20) [glucagon derivative of SEQ ID NO: 25]	46.9	–
W[Aib]QGTFTSDYSKYLDECRAKDFVQWLMNT (lactam 16-20) [glucagon derivative of SEQ ID NO: 26]	1	–
Y[Aib]QGTFVSDYSKYLDECRAKDFVQWLMNT (lactam 16-20) [glucagon derivative of SEQ ID NO: 27]	93.6	–
W[Aib]QGTFVSDYSKYLDECRAKDFVQWLMNT (lactam 16-20) [glucagon derivative of SEQ ID NO: 28]	< 0.1	–

Molecule	in vitro activity (%, relative to SEQ ID NO: 1); cAMP assay, from EC50 [2] [%]	further results
HSQGTFTSDYSKYLDCDRAQDFVQWLMNT [glucagon derivative of SEQ ID NO: 2]	0.6	–
Y[Aib]QGTFTSDYSKCLDERRAKDFVQWLMNT (lactam 16-20) [glucagon derivative of SEQ ID NO: 29]	61.3	–
W[Aib]QGTFTSDYSKCLDERRAKDFVQWLMNT (lactam 16-20) [glucagon derivative of SEQ ID NO: 30]	0.3	–
Y[Aib]QGTFTSDYSKYLDCKRAKEFVQWLMNT (lactam 17-21) [glucagon derivative of SEQ ID NO: 31]	6.3	–
SQGTFTSDYSKYLDECRAKEFVQWLMNT (lactam 15-19) [glucagon derivative of SEQ ID NO: 32]	0.7	–
YXQGTFTSDYSKYLDSRRAQDFVQWLMNT (X at position 2 = aminoisobutyric acid (Aib)) [glucagon derivative of SEQ ID NO: 33]	108	–
W[Aib]QGTFTSDYSKYCDERRAKEFVQWLMNT (lactam 16-20) [glucagon derivative of SEQ ID NO: 34]	0.2	–
Y[Aib]QGTFTSDYSKYCDERRAKEFVQWLMNT (lactam 16-20) [glucagon derivative of SEQ ID NO: 35]	17.7	–
Y[Aib]QGTFTSDCSKYLDERRAKEFVQWLMNT (lactam 16-20) [glucagon derivative of SEQ ID NO: 36]	9.9	–
Y[Aib]QGTFCSDYSKYLDERRAKEFVQWLMNT (lactam 16-20) [glucagon derivative of SEQ ID NO: 38]	167	–
HSQGTFTSDYSKYLDCERAQDFVQWLMNT [glucagon derivative of SEQ ID NO: 3]	6.1	–
Y[Aib]QGTFVSDCSKYLDERRAKDFVQWLMNT (lactam 16-20) [glucagon derivative of SEQ ID NO: 39]	3.7	–
Y[Aib]QGTFVSDYSKYLDERRAKDFVQWLMNTC (lactam 16-20) [glucagon derivative of SEQ ID NO: 40]	40.8	–
Y[Aib]QGTFCSDYSKYLDERRAKDFVQWLMNT (lactam 16-20) [glucagon derivative of SEQ ID NO: 41]	45.2	–
Y[Aib]QGTFCSDYSKYLDSRRAQDFVQWLMNT [glucagon derivative of SEQ ID NO: 42]	37.9	–
Y[Aib]QGTFTSDCSKYLDSRRAQDFVQWLMNT [glucagon derivative of SEQ ID NO: 43]	1.6	–
YXQGTFTSDYSKYLDSRRAQDFVQWLMNTC (X at position 2 = aminoisobutyric acid (Aib)) [glucagon derivative of SEQ ID NO: 44]	75.4	–
HSQGTFTSDYSKYLDSCDAQDFVQWLMNT [glucagon derivative of SEQ ID NO: 4]	< 0.1	–
HSQGTFTSDYSKYLDSCEAQDFVQWLMNT [glucagon derivative of SEQ ID NO: 5]	0.3	–
HSQGTFTSDYSKYLDSCEADDFVQWLMNT [glucagon derivative of SEQ ID NO: 6]	< 0.1	–
YSQGTFTSDYSKYLDSCEADDFVQWLMNT [glucagon derivative of SEQ ID NO: 7]	< 0.1	–
Y[Aib]QGTFTSDYSKYLDSCDAQDFVQWLINT [glucagon derivative of SEQ ID NO: 8]	< 0.1	–
